From paper PMC3763469 (Molecular cell, 2011) come the findings set out here.

In test [1] the target is FlAsH-Saci_1373 (ESCRT-III wH domain, residues 194-261) (S. acidocaldarius) (UniProt Q4J924). As to the kind of experiment: fluorescence polarisation. Background: Polarisation of emitted light reports the rotation of a fluorescent probe.
Test [2] has as its target T1, S. solfataricus ESCRT-III wH domain (His6-SSO0910, residues 210-259) (S. solfataricus, UniProt Q97ZJ6 210-259).
T1 chain (looked up): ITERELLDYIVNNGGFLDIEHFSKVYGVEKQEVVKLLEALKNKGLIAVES
As to the kind of experiment: crystal structure.

In test [3] the target is T2, GST fused to full length ESCRT-III (Saci_1373) (S. acidocaldarius, UniProt Q4J924 1-261).
T2 sequence (looked up): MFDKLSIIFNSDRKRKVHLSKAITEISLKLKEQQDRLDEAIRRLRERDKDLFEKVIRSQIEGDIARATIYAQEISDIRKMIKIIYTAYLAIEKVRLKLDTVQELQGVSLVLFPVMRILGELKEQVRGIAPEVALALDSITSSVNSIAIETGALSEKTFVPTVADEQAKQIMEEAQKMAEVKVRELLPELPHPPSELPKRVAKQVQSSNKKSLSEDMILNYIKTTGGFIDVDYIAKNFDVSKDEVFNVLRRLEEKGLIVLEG
As to the kind of experiment: pull-down.

Test [4] has as its target T3, full length ESCRT-III (Saci_1373), purified recombinant (S. acidocaldarius, UniProt Q4J924 1-261).
T3 sequence (looked up): T2 sequence (looked up)
In words: co-sedimentation.

A word on the Kd: it is the free concentration of one partner at which half of the binding sites on the other are occupied at equilibrium, for simple one-to-one binding. On to “GST-tagged CdvA residues 208-238 (from UniProt Q4J923 208-238) (domain or fragment)”, for which the Kd in test [1] worked out at 6 µM.

B1: S. solfataricus CdvA E3B peptide (SSO0911, residues 251-265) (peptide, UniProt Q97ZJ5 251-265, looked up)
peptide: SEIPLPIPVKVINTL
On to B1, for which the binding result in test [2] was “binds”.

B2: CdvA (Saci_1374) residues 69-238 (domain or fragment, S. acidocaldarius, UniProt Q4J923 69-238, looked up)
chain: DWKTDSLKVLGQMEKIRKRQRALEELYSRQEIPKSTYEDMKRKLDSELLKIRDEHSRLKGRLKDRLNSIEDQVAQIDRAMIALKINYISGEIPELAYKNSMEILRLSRDSYALERDDIKKTLDKLDGLDKEVIELKPSASLNTSTEQSNKNEGNKSEVSVPIPVRVINTL
Regarding B2, the binding result in test [3] and in test [4] was “binds” each time.
